Values quoted from earlier work, collected in publication PMC11087986.
Like-named read-outs stand apart in the source and are kept apart here.

Experiments:
[1] = target: RBM39 RRM1-RRM2 (Homo sapiens) (UniProt Q14498)
[2] = target: RBM39 RRM1-RRM2 (Homo sapiens) (UniProt Q14498); remark: listed apart in the source
[3] = target: RBM39 RRM1-RRM2 (Homo sapiens) (UniProt Q14498); remark: listed apart in the source

Chain of UniProt Q14498 (Q14498 153-328): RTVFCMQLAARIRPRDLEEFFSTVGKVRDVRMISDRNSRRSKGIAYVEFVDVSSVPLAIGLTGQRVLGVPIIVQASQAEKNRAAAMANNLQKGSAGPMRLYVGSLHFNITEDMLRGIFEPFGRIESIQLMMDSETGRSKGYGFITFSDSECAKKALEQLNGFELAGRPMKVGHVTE

- Kd [1]: 120 nM
- Kd [2]: 4600 nM
- Kd [3]: 160 nM
Substance: DCAF15 (from UniProt Q66K64)
